Reference: the supplement of paper PMC9112550, “Optimization of the antimicrobial peptide Bac7 by deep mutational scanning” (BMC Biology, 2022)

Tested on: Escherichia coli TOP10
Experiment: shrunken log2 fold change of peptide-encoding DNA abundance (4.5 h post-induction vs induction); higher = less antimicrobial activity (less host growth inhibition)
Details: time post-induction: 4.5 h; library: site-saturation at positions 5, 18, 19, 20
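Further: peptides expressed intracellularly from a pBAD plasmid library in pooled LB shake-flask culture, induced with 0.3% L-arabinose, DNA abundance read by NGS, three biological replicates, DESeq2 with apeglm shrinkage.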

| Sequence | shrunken log2 fold change |
| --- | --- |
| RRIRWRPPRLPRPRPRPFQLPRP | -0.316 |
| RRIRWRPPRLPRPRPRPFRKPRP | -0.351 |
| RRIRWRPPRLPRPRPRPFSHPRP | -0.241 |
| RRIRWRPPRLPRPRPRPFTFPRP | -0.326 |
| RRIRWRPPRLPRPRPRPFVCPRP | -0.108 |
| RRIRWRPPRLPRPRPRPFVKPRP | -0.753 |
| RRIRWRPPRLPRPRPRPFVYPRP | -0.428 |
| RRIRWRPPRLPRPRPRPFYRPRP | -0.179 |
| RRIRWRPPRLPRPRPRPGADPRP | 0.839 |
| RRIRWRPPRLPRPRPRPGAFPRP | 0.3 |
| RRIRWRPPRLPRPRPRPGAKPRP | 0.21 |
| RRIRWRPPRLPRPRPRPGCFPRP | 0.375 |
| RRIRWRPPRLPRPRPRPGCTPRP | 0.194 |
| RRIRWRPPRLPRPRPRPGDDPRP | 0.351 |
| RRIRWRPPRLPRPRPRPGEIPRP | 0.889 |
| RRIRWRPPRLPRPRPRPGFYPRP | 0.0692 |
| RRIRWRPPRLPRPRPRPGGAPRP | 0.691 |
| RRIRWRPPRLPRPRPRPGGTPRP | 0.209 |
| RRIRWRPPRLPRPRPRPGHVPRP | 0.153 |
| RRIRWRPPRLPRPRPRPGIDPRP | 0.117 |
| RRIRWRPPRLPRPRPRPGIVPRP | 0.585 |
| RRIRWRPPRLPRPRPRPGKTPRP | 0.0109 |
| RRIRWRPPRLPRPRPRPGLPPRP | 0.288 |
| RRIRWRPPRLPRPRPRPGMKPRP | 0.0023 |
| RRIRWRPPRLPRPRPRPGMNPRP | -0.0747 |

| Sequence | shrunken log2 fold change |
| --- | --- |
| RRIRWRPPRLPRPRPRPGMSPRP | 0.893 |
| RRIRWRPPRLPRPRPRPGNFPRP | -0.149 |
| RRIRWRPPRLPRPRPRPGPKPRP | 0.21 |
| RRIRWRPPRLPRPRPRPGPMPRP | 0.327 |
| RRIRWRPPRLPRPRPRPGPVPRP | 0.423 |
| RRIRWRPPRLPRPRPRPGSDPRP | 0.661 |
| RRIRWRPPRLPRPRPRPGSIPRP | -0.0682 |
| RRIRWRPPRLPRPRPRPGTYPRP | -0.127 |
| RRIRWRPPRLPRPRPRPGVIPRP | 0.0325 |
| RRIRWRPPRLPRPRPRPGWGPRP | 0.534 |
| RRIRWRPPRLPRPRPRPGWQPRP | 0.0857 |
| RRIRWRPPRLPRPRPRPGYVPRP | -0.215 |
| RRIRWRPPRLPRPRPRPHCHPRP | -0.254 |
| RRIRWRPPRLPRPRPRPHCLPRP | 0.0644 |
| RRIRWRPPRLPRPRPRPHCPPRP | -0.0401 |
| RRIRWRPPRLPRPRPRPHEGPRP | -0.102 |
| RRIRWRPPRLPRPRPRPHFGPRP | 0.168 |
| RRIRWRPPRLPRPRPRPHFIPRP | -0.349 |
| RRIRWRPPRLPRPRPRPHGKPRP | 0.00196 |
| RRIRWRPPRLPRPRPRPHHAPRP | -0.0735 |
| RRIRWRPPRLPRPRPRPHKAPRP | -0.000946 |
| RRIRWRPPRLPRPRPRPHKPPRP | -0.119 |
| RRIRWRPPRLPRPRPRPHLIPRP | 0.172 |
| RRIRWRPPRLPRPRPRPHNHPRP | -0.707 |
| RRIRWRPPRLPRPRPRPHNKPRP | -0.39 |

| Sequence | shrunken log2 fold change |
| --- | --- |
| RRIRWRPPRLPRPRPRPHNSPRP | -0.394 |
| RRIRWRPPRLPRPRPRPHPIPRP | 0.062 |
| RRIRWRPPRLPRPRPRPHQGPRP | 0.0993 |
| RRIRWRPPRLPRPRPRPHQWPRP | -0.0271 |
| RRIRWRPPRLPRPRPRPHRDPRP | -0.215 |
| RRIRWRPPRLPRPRPRPHRIPRP | -0.225 |
| RRIRWRPPRLPRPRPRPHTNPRP | -0.283 |
| RRIRWRPPRLPRPRPRPHWQPRP | -0.00204 |
| RRIRWRPPRLPRPRPRPIAMPRP | 0.256 |
| RRIRWRPPRLPRPRPRPIDCPRP | 0.0353 |
| RRIRWRPPRLPRPRPRPIDEPRP | 0.0867 |
| RRIRWRPPRLPRPRPRPIEEPRP | 0.0406 |
| RRIRWRPPRLPRPRPRPIFCPRP | 0.067 |
| RRIRWRPPRLPRPRPRPIHAPRP | 0.0364 |
| RRIRWRPPRLPRPRPRPIITPRP | -0.827 |
| RRIRWRPPRLPRPRPRPILHPRP | 0.0591 |
| RRIRWRPPRLPRPRPRPILSPRP | -0.422 |
| RRIRWRPPRLPRPRPRPINDPRP | -0.222 |
| RRIRWRPPRLPRPRPRPIPQPRP | 0.254 |
| RRIRWRPPRLPRPRPRPIPRPRP | 0.0469 |
| RRIRWRPPRLPRPRPRPIQNPRP | -0.394 |
| RRIRWRPPRLPRPRPRPIQPPRP | 0.0851 |
| RRIRWRPPRLPRPRPRPISCPRP | -0.0467 |
| RRIRWRPPRLPRPRPRPISRPRP | -0.116 |
| RRIRWRPPRLPRPRPRPITVPRP | -0.0559 |

| Sequence | shrunken log2 fold change |
| --- | --- |
| RRIRWRPPRLPRPRPRPIVQPRP | 0.0969 |
| RRIRWRPPRLPRPRPRPIVSPRP | -0.000687 |
| RRIRWRPPRLPRPRPRPIWLPRP | 0.211 |
| RRIRWRPPRLPRPRPRPIYSPRP | -0.0292 |
| RRIRWRPPRLPRPRPRPKADPRP | 0.353 |
| RRIRWRPPRLPRPRPRPKALPRP | 0.237 |
| RRIRWRPPRLPRPRPRPKDAPRP | 0.362 |
| RRIRWRPPRLPRPRPRPKDIPRP | -0.0886 |
| RRIRWRPPRLPRPRPRPKEEPRP | 1.07 |
| RRIRWRPPRLPRPRPRPKFAPRP | 0.453 |
| RRIRWRPPRLPRPRPRPKFDPRP | -0.0572 |
| RRIRWRPPRLPRPRPRPKFNPRP | -0.434 |
| RRIRWRPPRLPRPRPRPKFVPRP | 0.295 |
| RRIRWRPPRLPRPRPRPKGMPRP | -0.159 |
| RRIRWRPPRLPRPRPRPKGVPRP | 0.109 |
| RRIRWRPPRLPRPRPRPKHQPRP | 0.195 |
| RRIRWRPPRLPRPRPRPKHTPRP | 0.578 |
| RRIRWRPPRLPRPRPRPKIIPRP | -0.0886 |
| RRIRWRPPRLPRPRPRPKIYPRP | -0.0902 |
| RRIRWRPPRLPRPRPRPKLLPRP | 0.336 |
| RRIRWRPPRLPRPRPRPKMQPRP | 0.329 |
| RRIRWRPPRLPRPRPRPKMSPRP | 0.163 |
| RRIRWRPPRLPRPRPRPKNDPRP | 0.0313 |
| RRIRWRPPRLPRPRPRPKNLPRP | 0.0793 |
| RRIRWRPPRLPRPRPRPKQSPRP | 0.698 |

| Sequence | shrunken log2 fold change |
| --- | --- |
| RRIRWRPPRLPRPRPRPKRRPRP | 0.0884 |
| RRIRWRPPRLPRPRPRPKSDPRP | 0.473 |
| RRIRWRPPRLPRPRPRPKSHPRP | 0.249 |
| RRIRWRPPRLPRPRPRPKSKPRP | 0.194 |
| RRIRWRPPRLPRPRPRPKTIPRP | 0.118 |
| RRIRWRPPRLPRPRPRPKTMPRP | 0.35 |
| RRIRWRPPRLPRPRPRPKVNPRP | 0.175 |
| RRIRWRPPRLPRPRPRPKWAPRP | 0.507 |
| RRIRWRPPRLPRPRPRPKWQPRP | 0.0119 |
| RRIRWRPPRLPRPRPRPKYQPRP | -0.231 |
| RRIRWRPPRLPRPRPRPLAEPRP | 1.13 |
| RRIRWRPPRLPRPRPRPLDKPRP | 0.352 |
| RRIRWRPPRLPRPRPRPLDYPRP | -0.314 |
| RRIRWRPPRLPRPRPRPLECPRP | 0.0173 |
| RRIRWRPPRLPRPRPRPLHNPRP | -0.116 |
| RRIRWRPPRLPRPRPRPLIHPRP | -0.0681 |
| RRIRWRPPRLPRPRPRPLKGPRP | 0.0212 |
| RRIRWRPPRLPRPRPRPLKKPRP | 0.0518 |
| RRIRWRPPRLPRPRPRPLKVPRP | -0.496 |
| RRIRWRPPRLPRPRPRPLLFPRP | -0.0366 |
| RRIRWRPPRLPRPRPRPLLRPRP | 0.325 |
| RRIRWRPPRLPRPRPRPLLWPRP | 0.571 |
| RRIRWRPPRLPRPRPRPLMIPRP | -0.304 |
| RRIRWRPPRLPRPRPRPLMSPRP | -0.0663 |
| RRIRWRPPRLPRPRPRPLNFPRP | -0.323 |

| Sequence | shrunken log2 fold change |
| --- | --- |
| RRIRWRPPRLPRPRPRPLNRPRP | -0.274 |
| RRIRWRPPRLPRPRPRPLPGPRP | 0.215 |
| RRIRWRPPRLPRPRPRPLTSPRP | -0.101 |
| RRIRWRPPRLPRPRPRPLTYPRP | -0.423 |
| RRIRWRPPRLPRPRPRPLVFPRP | 0.0454 |
| RRIRWRPPRLPRPRPRPLWQPRP | 0.156 |
| RRIRWRPPRLPRPRPRPLWYPRP | -0.225 |
| RRIRWRPPRLPRPRPRPLYSPRP | -0.247 |
| RRIRWRPPRLPRPRPRPMAEPRP | 0.203 |
| RRIRWRPPRLPRPRPRPMCDPRP | 0.116 |
| RRIRWRPPRLPRPRPRPMCQPRP | 0.132 |
| RRIRWRPPRLPRPRPRPMDGPRP | 0.309 |
| RRIRWRPPRLPRPRPRPMEFPRP | -0.145 |
| RRIRWRPPRLPRPRPRPMFMPRP | -0.209 |
| RRIRWRPPRLPRPRPRPMGSPRP | -0.0192 |
| RRIRWRPPRLPRPRPRPMIPPRP | 0.0901 |
| RRIRWRPPRLPRPRPRPMKDPRP | -0.141 |
| RRIRWRPPRLPRPRPRPMKLPRP | -0.198 |
| RRIRWRPPRLPRPRPRPMKTPRP | -0.0156 |
| RRIRWRPPRLPRPRPRPMLDPRP | 0.426 |
| RRIRWRPPRLPRPRPRPMMAPRP | 0.452 |
| RRIRWRPPRLPRPRPRPMMFPRP | -0.117 |
| RRIRWRPPRLPRPRPRPMNCPRP | 0.0143 |
| RRIRWRPPRLPRPRPRPMNKPRP | -0.267 |
| RRIRWRPPRLPRPRPRPMNNPRP | -0.606 |
